According to patent US20250136721A1 (GlaxoSmithKline, published 2025):
Numbering of substitutions follows the chain as printed. In names and notes the source's numbering stands.

B1: DOM1H-131-206 C-terminal ASTKG (protein)
VH: EVQLLESGGGLVQPGGSLRLSCAASGFTFAHETMVWVRQAPGKGLEWVSHIPPDGQDPFYADSVKGRFTISRDNSKNTLYLQMNSLRAEDTAVYHCALLPKRGPWFDYWGQGTLVTVSSASTKG
B2: DOM1H-131-206 P14A + C-terminal A (protein)
VH: EVQLLESGGGLVQAGGSLRLSCAASGFTFAHETMVWVRQAPGKGLEWVSHIPPDGQDPFYADSVKGRFTISRDNSKNTLYLQMNSLRAEDTAVYHCALLPKRGPWFDYWGQGTLVTVSSA
B3: DOM1H-131-206 P14A + C-terminal ASTKG (protein)
VH: B1 VH with P14A
B4: DOM1H-131-206 P14T + C-terminal ASTKG (protein, name in Kabat numbering)
VH: B1 VH with P14T
B5: DOM1H-131-206 L108Q (protein, name in Kabat numbering)
VH: EVQLLESGGGLVQPGGSLRLSCAASGFTFAHETMVWVRQAPGKGLEWVSHIPPDGQDPFYADSVKGRFTISRDNSKNTLYLQMNSLRAEDTAVYHCALLPKRGPWFDYWGQGTQVTVSS
B6: DOM1H-131-206 C-terminal ASTK (protein)
VH: EVQLLESGGGLVQPGGSLRLSCAASGFTFAHETMVWVRQAPGKGLEWVSHIPPDGQDPFYADSVKGRFTISRDNSKNTLYLQMNSLRAEDTAVYHCALLPKRGPWFDYWGQGTLVTVSSASTK
B7: DOM1H-131-206 Q13A (protein, name in Kabat numbering)
VH: B5 VH with Q13A, Q114L
B8: DOM1H-131-206 P14A (protein)
VH: B5 VH with P14A, Q114L
B9: DOM1H-131-206 C-terminal AS (protein)
VH: EVQLLESGGGLVQPGGSLRLSCAASGFTFAHETMVWVRQAPGKGLEWVSHIPPDGQDPFYADSVKGRFTISRDNSKNTLYLQMNSLRAEDTAVYHCALLPKRGPWFDYWGQGTLVTVSSAS
B10: DT04-H-033 C-terminal AAA (protein)
VH: EVQLLESGGGLVQPGGSLRLSCAASGFTFADYGMAWVRQAPGKGLEWVSTISYNGLYTYYADSVKGRTISRDNSKNTLYLQMNSLRAEDTAVYYCAKYEYSPESDFDYWGQGTLVTVSSAAA
B11: DT04-H-033 C-terminal AST (protein)
VH: B10 VH with A121S, A122T
B12: DT04-H-033 C-terminal AS (protein)
VH: EVQLLESGGGLVQPGGSLRLSCAASGFTFADYGMAWVRQAPGKGLEWVSTISYNGLYTYYADSVKGRTISRDNSKNTLYLQMNSLRAEDTAVYYCAKYEYSPESDFDYWGQGTLVTVSSAS
B13: DT04-H-033 C-terminal A (protein)
VH: EVQLLESGGGLVQPGGSLRLSCAASGFTFADYGMAWVRQAPGKGLEWVSTISYNGLYTYYADSVKGRTISRDNSKNTLYLQMNSLRAEDTAVYYCAKYEYSPESDFDYWGQGTLVTVSSA

target: pre-existing anti-VH ADA in human serum; test: ADA confirmation assay (MSD): 10 ug/mL test material against labelled DOM1H-131-206, mean of 10 sera

**Q.** For B1, which Mean % inhibition of signal in confirmation assay is on record?
**A.** Its Mean % inhibition of signal in confirmation assay is 1.77%.

**Q.** How did the Mean % inhibition of signal in confirmation assay turn out when B2 was run?
**A.** The Mean % inhibition of signal in confirmation assay was 8.76%.

**Q.** How did the Mean % inhibition of signal in confirmation assay turn out when B3 was run?
**A.** The Mean % inhibition of signal in confirmation assay was 11.9%.

**Q.** For B4, which Mean % inhibition of signal in confirmation assay is on record?
**A.** The Mean % inhibition of signal in confirmation assay was 17.2%.

target: pre-existing anti-VH ADA in human serum; test: ADA confirmation assay (MSD): 10 ug/mL test material against labelled DOM1H-131-206; share of 10 ADA-positive sera with binding

**Q.** With B5 as the binder, how does the % subjects with ADA binding (10 subjects) (% of subjects) read?
**A.** Its % subjects with ADA binding (10 subjects) (% of subjects) is 100.

**Q.** For B6, which % subjects with ADA binding (10 subjects) (% of subjects) is on record?
**A.** Its % subjects with ADA binding (10 subjects) (% of subjects) is 40.

**Q.** How did the % subjects with ADA binding (10 subjects) (% of subjects) turn out when B1 was run?
**A.** The % subjects with ADA binding (10 subjects) (% of subjects) was 40.

**Q.** Which % subjects with ADA binding (10 subjects) (% of subjects) does the source give for B7 here?
**A.** Its % subjects with ADA binding (10 subjects) (% of subjects) is 100.

**Q.** B8 was tested. Which % subjects with ADA binding (10 subjects) (% of subjects) did it give?
**A.** Its % subjects with ADA binding (10 subjects) (% of subjects) is 100.

target: pre-existing anti-VH ADA in human serum; test: ADA confirmation assay (MSD): 10 ug/mL test material against labelled DOM1H-131-206, mean of 10 sera; remark: another data set of the same source

**Q.** For B5, which Mean % inhibition of signal in confirmation assay is on record?
**A.** Its Mean % inhibition of signal in confirmation assay is 90.9%.

**Q.** With B9 as the binder, how does the Mean % inhibition of signal in confirmation assay read?
**A.** Its Mean % inhibition of signal in confirmation assay is 16.3%.

**Q.** How did the Mean % inhibition of signal in confirmation assay turn out when B6 was run?
**A.** The Mean % inhibition of signal in confirmation assay was 19.6%.

**Q.** With B1 as the binder, how does the Mean % inhibition of signal in confirmation assay read?
**A.** The Mean % inhibition of signal in confirmation assay was 28.3%.

**Q.** How did the Mean % inhibition of signal in confirmation assay turn out when B7 was run?
**A.** Its Mean % inhibition of signal in confirmation assay is 99.2%.

**Q.** How did the Mean % inhibition of signal in confirmation assay turn out when B8 was run?
**A.** The Mean % inhibition of signal in confirmation assay was 58.3%.

**Q.** B10 was tested. Which Mean % inhibition of signal in confirmation assay did it give?
**A.** The Mean % inhibition of signal in confirmation assay was 11%.

**Q.** B11 was tested. Which Mean % inhibition of signal in confirmation assay did it give?
**A.** Its Mean % inhibition of signal in confirmation assay is 14%.

**Q.** How did the Mean % inhibition of signal in confirmation assay turn out when B12 was run?
**A.** The Mean % inhibition of signal in confirmation assay was 8.26%.

**Q.** B13 was tested. Which Mean % inhibition of signal in confirmation assay did it give?
**A.** The Mean % inhibition of signal in confirmation assay was 12.5%.
